Test results published in article PMC5062252, “High-resolution crystal structure of the therapeutic antibody pembrolizumab bound to the human PD-1” (Scientific Reports, 2016).

Target: T1, extracellular domain of human PD-1 (PD-1ECD), residues 32-160, C93S (human, C93S (stands in the printed letters))
T1 construct: additional N-terminal residues retained after restriction site cloning; additional C-terminal residues retained after cloning and TEV cleavage; also called programmed cell death-1; CD279; not shown: His6, C-terminal, cleaved
T1 chain: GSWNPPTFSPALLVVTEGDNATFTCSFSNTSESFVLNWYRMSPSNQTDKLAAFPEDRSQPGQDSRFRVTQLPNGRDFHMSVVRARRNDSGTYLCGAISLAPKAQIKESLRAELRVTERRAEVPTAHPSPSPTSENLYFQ
Experiment: SEC; analytical gel filtration of the PemFv/PD-1ECD complex; data not shown
Conditions: both partners purified

stoichiometry N: 1
B1: Fv fragment of pembrolizumab (PemFv) (other)
VL: EIVLTQSPATLSLSPGERATLSCRASKGVSTSGYSYLHWYQQKPGQAPRLLIYLASYLESGVPARFSGSGSGTDFTLTISSLEPEDFAVYYCQHSRDLPLTFGGGTKVEIKTSENLYFQ
VH: QVQLVQSGVEVKKPGASVKVSCKASGYTFTNYYMYWVRQAPGQGLEWMGGINPSNGGTNFNEKFKNRVTLTTDSSTTTAYMELKSLQFDDTAVYYCARRDYRFDMGFDYWGQGTTVTVSS
notes: pembrolizumab light chain variable region (PemVL); additional C-terminal residues retained after TEV cleavage; pembrolizumab heavy chain variable region (PemVH); Fv fragment: VL and VH as two separate chains, not linked; also called pembrolizumab Fv; Keytruda; not shown: His6, C-terminal, cleaved; copies: 1 + 1
